Data reported in US20230340128A1 (Xencor, published 2023).
Substitutions are numbered along the chain they refer to. Blank lines part the entries; values can stand above or below the binder they belong to.

Key:
human mesothelin (MSLN) [1] = biological target: T1, human mesothelin (MSLN) (human, UniProt Q13421 296-580, limits assumed); assay: BLI (Octet), bsAb in 1+1 Fab-scFv-Fc format
T1 construct: Antigen of the Octet KD values

human mesothelin (MSLN) [2] = biological target: T1, human mesothelin (MSLN); assay: BLI (Octet), multiple concentrations, bsAb in 1+1 Fab-scFv-Fc format; lower table, column 'human MSLN (M)'
human mesothelin (MSLN) [3] = biological target: T1, human mesothelin (MSLN); assay: label in the legend box: nominal affinity of the MSLN binding domain (paragraph 422 calls such label values KD); method not stated on the sheet
human CD28 = biological target: T2, human CD28 (human, UniProt P10747 19-152, limits assumed); assay: label in the legend box: nominal affinity of the CD28 binding domain (paragraph 422 calls such label values KD); method not stated on the sheet
T2 construct: also called Cluster of Differentiation 28; Tp44

Kd (human mesothelin (MSLN) [1]): 15.3 nM
Response (human mesothelin (MSLN) [1]): 0.953
koff (human mesothelin (MSLN) [1]): 0.00887 s⁻¹
kon (human mesothelin (MSLN) [1]): 578000 M⁻¹ s⁻¹
Kd (human mesothelin (MSLN) [2]): 3.9 nM
B1: XENP32567 (bispecific antibody)
chain 1: QVQLVQSGAEVKKPGASVKVSCKASGYTFTSYWMHWVRQAPGQGLEWMGMIHPNSDNTIYYEKFQGRVTMTVDKSISTAYMELSRLRSDDTAVYYCAIIITPVVPKFDYWGQGTLVTVSSASTKGPSVFPLAPSSKSTSGGTAALGCLVKDYFPEPVTVSWNSGALTSGVHTFPAVLQSSGLYSLSSVVTVPSSSLGTQTYICNVNHKPSDTKVDKKVEPKSCDKTHTCPPCPAPPVAGPSVFLFPPKPKDTLMISRTPEVTCVVVDVKHEDPEVKFNWYVDGVEVHNAKTKPREEEYNSTYRVVSVLTVLHQDWLNGKEYKCKVSNKALPAPIEKTISKAKGQPREPQVYTLPPSREEMTKNQVSLTCDVSGFYPSDIAVEWESDGQPENNYKTTPPVLDSDGSFFLYSKLTVDKSRWEQGDVFSCSVMHEALHNHYTQKSLSLSPGK
chain 2: not shown
chain 3: DIVMTQSPDSLAVSLGERATINCKASHDVGTSVAWYQQKPGQSPKLLIYWASTRHTGVPDRFTGSGSGTDFTLTISSLQAEDVAVYFCQQYYSYPLTFGAGTKLEIKRTVAAPSVFIFPPSDEQLKSGTASVVCLLNNFYPREAKVQWKVDNALQSGNSQESVTEQDSKDSTYSLSSTLTLSKADYEKHKVYACEVTHQGLSSPVTKSFNRGEC

Kd (human mesothelin (MSLN) [1]): 30 nM
Response (human mesothelin (MSLN) [1]): 0.915
koff (human mesothelin (MSLN) [1]): 0.0147 s⁻¹
kon (human mesothelin (MSLN) [1]): 491000 M⁻¹ s⁻¹
Kd (human mesothelin (MSLN) [2]): 9.2 nM
B2: XENP32552 (bispecific antibody)
chain 1: B1 chain 1 with M50W
chain 2: not shown
chain 3: B1 chain 3 with Y92S

Kd (human mesothelin (MSLN) [3]): 90 nM
Kd (human CD28): 180 nM
B3: XENP44479 (bispecific antibody)
heavy: QVQLVQSGAEVKKPGASVKVSCKASGYTFTSYWMHWVRQAPGQGLEWMGWIHPNSDNTIYYEKFQGRVTMTVDKSISTAYMELSRLRSDDTAVYYCAIIITPVVPKFDYWGQGTLVTVSSASTKGPSVFPLAPSSKSTSGGTAALGCLVKDYFPEPVTVSWNSGALTSGVHTFPAVLQSSGLYSLSSVVTVPSSSLGTQTYICNVNHKPSDTKVDKKVEPKSCGGGGSGGGGSQVQLVQSGAEVKKPGASVKVSCKASGYTFTSYWMHWVRQAPGQGLEWMGWIHPNSDNTIYYEKFQGRVTMTVDKSISTAYMELSRLRSDDTAVYYCAIIITPVVPKFDYWGQGTLVTVSSASTKGPSVFPLAPSSKSTSGGTAALGCLVKDYFPEPVTVSWNSGALTSGVHTFPAVLQSSGLYSLSSVVTVPSSSLGTQTYICNVNHKPSDTKVDKKVEPKSCDKTHTCPPCPAPPVAGPSVFLFPPKPKDTLMISRTPEVTCVVVDVKHEDPEVKFNWYVDGVEVHNAKTKPREEEYNSTYRVVSVLTVLHQDWLNGKEYKCKVSNKALPAPIEKTISKAKGQPREPQVYTLPPSREEMTKNQVSLTCDVSGFYPSDIAVEWESDGQPENNYKTTPPVLDSDGSFFLYSKLTVDKSRWEQGDVFSCSVLHEALHSHYTQKSLSLSPGK
scFv-Fc: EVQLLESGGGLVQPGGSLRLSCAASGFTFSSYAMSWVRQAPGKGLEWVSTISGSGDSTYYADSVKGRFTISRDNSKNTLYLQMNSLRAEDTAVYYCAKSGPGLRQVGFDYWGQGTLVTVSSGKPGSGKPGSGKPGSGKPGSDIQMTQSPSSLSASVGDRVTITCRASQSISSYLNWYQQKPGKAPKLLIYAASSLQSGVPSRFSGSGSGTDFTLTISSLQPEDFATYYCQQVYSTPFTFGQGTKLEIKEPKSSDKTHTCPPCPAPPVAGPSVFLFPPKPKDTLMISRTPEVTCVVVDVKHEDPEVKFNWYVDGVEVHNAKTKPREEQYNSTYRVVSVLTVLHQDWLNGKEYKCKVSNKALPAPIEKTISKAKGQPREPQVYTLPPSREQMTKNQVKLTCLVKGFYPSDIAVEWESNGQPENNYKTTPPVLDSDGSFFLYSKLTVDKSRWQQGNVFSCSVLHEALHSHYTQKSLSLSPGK
light 1: B1 chain 3 with T31Q, Y92S
light 2: B1 chain 3 with T31Q, Y92S
notes: also called XENP44479 MSLN (90 nM) x CD28 (180 nM) 2+1 Fab2-Fc x scFv-Fc
